One assay has as its target T1, Human plasmin (Homo sapiens, UniProt P00747).
T1 construct: purchased Kabi (Stockholm, Sweden)
In words: Inhibition of serine proteinases: plasmin, peptidyl nitroanilide substrate. It is filed as biochemical. Particulars: at 1 μM; 30 minutes incubation, substrate 0.6 mM, 405 nm. As to the method: (§1) The variants were purified from the yeast culture medium as described in example 1. The concentration of KFN 1651 was determined from the absorbance at 214 nm using aprotinin as a standard. Porcine trypsin was obtained from Novo Nordisk A/S. Human plasmin was obtained from Kabi (Stockholm, Sweden). Human neutrophil cathepsin G and elastase were purified from extracts of PMNs according to the method described by Baugh and Travis, Biochemistry 15, 1976, 836-843.
(§2) Peptidyl nitroanilide substrates S2251 ans S2586 were obtained from Kabi (Stockholm, Sweden), and S7388 and M 4765 were obtained from Sigma Chemical Co. (St. Louis, Mo., USA).
(§3) The serine proteinases were incubated with various concentrations of KFN 1900 or 1901 for 30 minutes. Substrate was then added (0.6 mM) and residual proteinase activity was measured at 405 nm.

For a further assay, the target named is T2, Porcine trypsin (Sus scrofa, UniProt P00761).
T2 construct: purchased Novo Nordisk A/S
In words: Inhibition of serine proteinases: trypsin, peptidyl nitroanilide substrate. In kind it is biochemical. Conditions: 30 minutes incubation, substrate 0.6 mM, residual activity at 405 nm. As to the method: as §1, §2, §3

In assay [1] the target is T3, Human neutrophil cathepsin G (Homo sapiens, UniProt P08311).
T3 construct: Human neutrophil cathepsin G and elastase were purified from extracts of PMNs; from tissue; host or cells: human polymorphonuclear leukocytes (PMNs)
T3 sequence (P08311 21-255): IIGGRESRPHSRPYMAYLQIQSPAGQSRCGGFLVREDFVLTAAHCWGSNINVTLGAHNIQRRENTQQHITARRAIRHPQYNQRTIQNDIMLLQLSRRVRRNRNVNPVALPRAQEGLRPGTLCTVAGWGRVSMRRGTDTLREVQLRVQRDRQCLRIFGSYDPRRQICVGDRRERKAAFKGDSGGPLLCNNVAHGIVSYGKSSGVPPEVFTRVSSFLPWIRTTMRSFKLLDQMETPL
As to the kind of experiment: Inhibition of serine proteinases: cathepsin G, peptidyl nitroanilide substrate. In kind it is biochemical. Conditions: 30 minutes incubation, substrate 0.6 mM, 405 nm. As to the method:
as §1, §2, §3

Assay [2] addresses T4, Human neutrophil elastase (Homo sapiens, UniProt P08246).
T4 construct: Human neutrophil cathepsin G and elastase were purified from extracts of PMNs; from tissue; host or cells: human polymorphonuclear leukocytes (PMNs)
T4 sequence (P08246 30-267): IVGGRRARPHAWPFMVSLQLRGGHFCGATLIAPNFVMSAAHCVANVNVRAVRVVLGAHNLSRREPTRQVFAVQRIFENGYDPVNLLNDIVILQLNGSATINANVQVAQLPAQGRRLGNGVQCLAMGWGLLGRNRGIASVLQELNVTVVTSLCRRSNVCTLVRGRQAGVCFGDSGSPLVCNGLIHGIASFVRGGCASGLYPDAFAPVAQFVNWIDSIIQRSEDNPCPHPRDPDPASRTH
In words: Inhibition of serine proteinases: neutrophil elastase, peptidyl nitroanilide substrate. In kind it is biochemical. Particulars: 30 minutes incubation, substrate 0.6 mM, 405 nm. As to the method: as §1, §2, §3

The target in assay [3] is Porcine trypsin (porcine) (UniProt P00761). As to the kind of experiment: inhibition of the proteinase, 30 minutes preincubation, residual activity on a peptidyl nitroanilide substrate at 405 nm.
Another assay concerns collagenase. Conditions: cited from earlier work.

T1 sequence (P00747 581-810 limits assumed): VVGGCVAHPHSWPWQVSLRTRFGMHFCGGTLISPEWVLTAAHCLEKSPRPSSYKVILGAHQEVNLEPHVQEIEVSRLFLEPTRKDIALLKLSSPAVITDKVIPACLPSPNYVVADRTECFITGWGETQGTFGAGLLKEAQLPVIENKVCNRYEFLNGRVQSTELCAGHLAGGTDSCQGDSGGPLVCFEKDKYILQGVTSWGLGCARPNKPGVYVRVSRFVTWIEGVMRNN
T1 sequence (P00747 97-580 partner limits assumed): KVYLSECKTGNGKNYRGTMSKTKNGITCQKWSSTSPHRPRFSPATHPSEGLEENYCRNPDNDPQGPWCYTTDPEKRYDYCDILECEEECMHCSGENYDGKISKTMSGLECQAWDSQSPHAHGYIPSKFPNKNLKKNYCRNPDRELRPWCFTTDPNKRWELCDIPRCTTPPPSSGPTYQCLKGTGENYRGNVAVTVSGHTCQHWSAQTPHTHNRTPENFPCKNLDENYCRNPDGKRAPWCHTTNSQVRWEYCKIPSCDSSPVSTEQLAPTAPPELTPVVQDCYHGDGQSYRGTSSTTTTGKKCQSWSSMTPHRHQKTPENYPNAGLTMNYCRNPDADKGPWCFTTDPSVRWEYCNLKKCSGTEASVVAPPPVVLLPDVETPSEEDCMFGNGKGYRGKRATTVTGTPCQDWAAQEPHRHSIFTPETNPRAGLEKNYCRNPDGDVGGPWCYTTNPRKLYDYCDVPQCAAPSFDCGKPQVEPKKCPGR
T2 sequence (P00761 9-231): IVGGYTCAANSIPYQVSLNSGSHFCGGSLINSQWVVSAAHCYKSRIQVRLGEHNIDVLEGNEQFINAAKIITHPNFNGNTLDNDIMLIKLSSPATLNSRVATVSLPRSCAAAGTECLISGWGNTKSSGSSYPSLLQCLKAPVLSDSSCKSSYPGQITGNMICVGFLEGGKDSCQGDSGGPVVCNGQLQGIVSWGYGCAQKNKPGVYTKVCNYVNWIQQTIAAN

By Ki is commonly meant a dissociation constant, usually derived from enzyme kinetics or from competition with a known ligand. Turning to “KFN 1900: [R15K, D16A] analog of the human α3(VI) collagen Kunitz-type protease inhibitor domain, produced from yeast strain KFN-1900”, the inhibition of plasmin result with Human plasmin was “weak inhibitors”. Also, the inhibition constant Ki in the assay with Porcine trypsin turned out to be 50 nM. Besides, in assay [1], the “inhibition of cathepsin G” value is on record as “did not inhibit”. The “inhibition of neutrophil elastase” value in assay [2] was “did not inhibit”.

Turning to “KFN 1901: [D16A] analog of the human α3(VI) collagen Kunitz-type protease inhibitor domain, produced from yeast strain KFN-1901”, in the assay with Human plasmin, the inhibition of plasmin entry is on record as “weak inhibitors”. The inhibition constant (Ki) with Porcine trypsin was 355 nM. In addition, the “inhibition of cathepsin G” value in assay [1] is recorded as “did not inhibit”. The “inhibition of neutrophil elastase” value in assay [2] is “did not inhibit”.

In turn, “[D16A]-α3(VI) Kunitz-type domain analog (from UniProt P12111)” gave an inhibitory constant (Ki) in assay [3] of 355 nM.

With “[R15K, D16A]-α3(VI) Kunitz-type domain analog (from UniProt P12111)”, the inhibition constant Ki in assay [3] came to 50 nM.

With aprotinin(1-58, Val15), the “inhibitory effect on collagenase” value with collagenase is listed as “inhibitory effect”.

Source of the values: patent US5629176A, “Human Kunitz-type protease inhibitor variants” (Novo Nordisk A/S, priority 1994, dated 1997).
